The source of these data is the FLAb antibody collection (doi:10.7554/elife.23156).

Some results are limits rather than exact numbers.

The chains are these.
B1: scFv; the commonest letter at each place (parent)
chain 1: EVKLDETGGGLVQPGRPMKLSCVASGFTFSDYWMNWVRQSPEKGLEWVAQIRNKPYNYETYYSDSVKGRFTISRDDSKSSVYLQMNNLRVEDMGIYYCTGSYYGMDYWGQGTSVTVS
chain 2: DVVMTQTPLSLPVSLGDQASISCRSSQSLVHSNGNTYLRWYLQKPGQSPKVLIYKVSNRFSGVPDRFSGSGSGTDFTLKISRVEAEDLGVYFCSQSTHVPWTFGGGTKLEIK

The variants in the data set “fluorescein” derive from B1. Kind of data set: Kd (Tite-Seq). Particulars: with fluorescein; format: scFv 4-4-20, heavy + light.
In data set [1] the parent is B1. The data set is described as follows: yeast surface expression (ratio to wild type); higher = more expressed. The settings on record: format: scFv 4-4-20, heavy + light.

For the variant chain 1 T28S W36R, the Kd with fluorescein was determined as 1.81 µM. For the same variant, in data set [1], the yeast surface expression stood at 0.57.
As for chain 1 Y32S M34K V37D, the Kd with fluorescein is no less than 10 µM. In addition, the yeast surface expression in data set [1] stood at 0.882.
For chain 1 G104D Y107L, in the data set with fluorescein, the Kd is no less than 10 µM. Also, the yeast surface expression in data set [1] was found to be 1.18.
As for chain 1 T28F V37P, the Kd with fluorescein amounted to 0.000589 µM. Also, the yeast surface expression in data set [1] was 0.417.
Turning to chain 1 G100W S101P D106M, in the data set with fluorescein, the Kd was no less than 10 µM. The yeast surface expression in data set [1] was 0.186.
In the case of chain 1 S101C G104N G109R, the Kd with fluorescein was no less than 10 µM. The yeast surface expression in data set [1] amounted to 0.263.
As to chain 1 S101V M105N, in the data set with fluorescein, the Kd was no less than 10 µM. In addition, the yeast surface expression in data set [1] was determined as 0.675.
For chain 1 Y107F W108E, the Kd in the data set with fluorescein is no less than 10 µM. In addition, the yeast surface expression in data set [1] stood at 0.411.
With chain 1 T28I D31F, the Kd in the data set with fluorescein amounted to 0.00166 µM. The yeast surface expression in data set [1] was 0.526.
Taken in the same sequence, the figures for chain 1 W33E M34L were no less than 10 µM and 0.721.
For chain 1 W108K G109H, in the data set with fluorescein, the Kd is no less than 10 µM. Moreover, the yeast surface expression in data set [1] came out at 0.44.
Take chain 1 F29S S30H: the Kd in the data set with fluorescein is 0.832 µM. The yeast surface expression in data set [1] was 0.945.
For the variant chain 1 G100L S101M, the Kd with fluorescein is no less than 10 µM. For the same variant, in data set [1], the yeast surface expression turned out to be 0.474.
In the case of chain 1 G104C M105P, the Kd with fluorescein is no less than 10 µM. In addition, the yeast surface expression in data set [1] came to 0.256.
For the variant chain 1 Y107I G109Q, the Kd with fluorescein was no less than 10 µM. Besides, the yeast surface expression in data set [1] turned out to be 0.442.
As for chain 1 Y32W V37S, the Kd in the data set with fluorescein was no less than 10 µM. Moreover, the yeast surface expression in data set [1] was 0.579.
Regarding chain 1 D31Y W36S, the Kd in the data set with fluorescein was no less than 10 µM. The yeast surface expression in data set [1] stood at 0.638.
Turning to chain 1 W33H M34V V37L, in the data set with fluorescein, the Kd is no less than 10 µM. The yeast surface expression in data set [1] came to 0.434.
As to chain 1 G100E W108G G109H, the Kd in the data set with fluorescein was no less than 10 µM. Moreover, the yeast surface expression in data set [1] worked out at 0.242.
The matching figures for chain 1 T28C: 0.00179 µM and 0.965.
Consider chain 1 T28R, for which, in the data set with fluorescein, the Kd is 0.00138 µM. For the same variant, the yeast surface expression in data set [1] is 0.917.
As to chain 1 D31S M34C N35Y, in the data set with fluorescein, the Kd is no less than 10 µM. Moreover, the yeast surface expression in data set [1] worked out at 0.927.
Taken in the same sequence, the figures for chain 1 Y102L M105I were no less than 10 µM and 1.57.
For chain 1 M105N G109C, the Kd with fluorescein was no less than 10 µM. Besides, in data set [1], the yeast surface expression came to 0.123.
Turning to chain 1 T28E D31K, in the data set with fluorescein, the equilibrium dissociation constant (Kd) came out at 0.00184 µM. Further, the yeast surface expression in data set [1] was 0.969.
With chain 1 S101C M105I, the Kd with fluorescein is no less than 10 µM. For the same variant, the yeast surface expression in data set [1] worked out at 0.826.
The matching figures for chain 1 M34R W36P: no less than 10 µM and 1.27.
For chain 1 W108P G109A, the Kd with fluorescein is 3.2 µM. Besides, the yeast surface expression in data set [1] came to 0.41.
Take chain 1 Y103T D106R: in the data set with fluorescein, the Kd is no less than 10 µM. Besides, the yeast surface expression in data set [1] was found to be 0.311.
Regarding chain 1 W33T, the Kd with fluorescein is no less than 10 µM. Moreover, the yeast surface expression in data set [1] turned out to be 1.02.
Taken in the same sequence, the figures for chain 1 Y102A D106L were no less than 10 µM and 0.691.
Taken in the same sequence, the figures for chain 1 D31C W33C were no less than 10 µM and 0.579.
As to chain 1 S101T Y103Q G109I, the Kd with fluorescein was no less than 10 µM. In data set [1], the yeast surface expression is 0.258.
In the case of chain 1 Y32Q, the Kd with fluorescein was no less than 10 µM. The yeast surface expression in data set [1] is 0.929.
Take chain 1 Y32A M34V: in the data set with fluorescein, the Kd is 0.0434 µM. Besides, in data set [1], the yeast surface expression stood at 0.941.
For chain 1 G104F W108T, the Kd in the data set with fluorescein was no less than 10 µM. In data set [1], the yeast surface expression worked out at 0.194.
For chain 1 S101Y, the Kd in the data set with fluorescein is no less than 10 µM. The yeast surface expression in data set [1] was found to be 0.659.
As for chain 1 S101V, in the data set with fluorescein, the Kd was no less than 10 µM. Besides, the yeast surface expression in data set [1] is 0.496.
For chain 1 S101N, the Kd with fluorescein was no less than 10 µM. The yeast surface expression in data set [1] worked out at 0.886.
Taken in the same sequence, the figures for chain 1 Y102I D106Q were no less than 10 µM and 0.599.
For chain 1 Y107V W108Y, the Kd with fluorescein amounted to 0.000688 µM. The yeast surface expression in data set [1] turned out to be 0.724.
The matching figures for chain 1 S101M G104I: no less than 10 µM and 0.274.
For chain 1 G100Y Y107K, in the data set with fluorescein, the dissociation constant (Kd) was no less than 10 µM. Further, the yeast surface expression in data set [1] is 0.555.
Take chain 1 S30Y W33G: in the data set with fluorescein, the equilibrium dissociation constant (Kd) was no less than 10 µM. Besides, the yeast surface expression in data set [1] amounted to 0.602.
As for chain 1 T28V Y32N, the Kd with fluorescein is no less than 10 µM. The yeast surface expression in data set [1] is 0.765.
As to chain 1 Y103E D106P, the dissociation constant Kd with fluorescein was no less than 10 µM. Also, the yeast surface expression in data set [1] was determined as 0.413.
Regarding chain 1 D106Y G109K, the Kd with fluorescein is no less than 10 µM. For the same variant, the yeast surface expression in data set [1] was 0.136.
Turning to chain 1 D106Y G109D, the Kd in the data set with fluorescein is no less than 10 µM. Further, the yeast surface expression in data set [1] was found to be 0.224.
Taken in the same sequence, the figures for chain 1 S30H M34F were 0.0015 µM and 0.945.
Regarding chain 1 S30H M34C, the Kd with fluorescein was determined as 6.96 µM. The yeast surface expression in data set [1] came to 0.623.
Consider chain 1 Y102C G109R, for which the dissociation constant (Kd) with fluorescein was no less than 10 µM. Also, in data set [1], the yeast surface expression is 0.304.
For chain 1 G100I Y103H, the Kd in the data set with fluorescein was no less than 10 µM. The yeast surface expression in data set [1] was 0.94.
As for chain 1 S30L D31L, the Kd in the data set with fluorescein is no less than 10 µM. The yeast surface expression in data set [1] was 0.0981.
For chain 1 W36Y V37I, the equilibrium dissociation constant (Kd) with fluorescein is 0.0205 µM. Further, in data set [1], the yeast surface expression was found to be 0.75.
chain 1 G104M M105R: the equilibrium dissociation constant (Kd) with fluorescein is no less than 10 µM. In addition, the yeast surface expression in data set [1] was 0.619.
Turning to chain 1 M105C, the equilibrium dissociation constant (Kd) with fluorescein was 4.48 µM. Moreover, the yeast surface expression in data set [1] turned out to be 0.861.
Regarding chain 1 Y103A D106I W108P, the Kd with fluorescein was no less than 10 µM. In addition, in data set [1], the yeast surface expression turned out to be 0.344.
The matching figures for chain 1 D106K W108G: no less than 10 µM and 0.276.
